# According to patent US6500430B1, “Product and process to regulate actin polymerization in T lymphocytes” (National Jewish Medical and Research Center, priority 1995, dated 2002):
# Numbering of substitutions follows the chain as printed.
# B1: CD25/ζY153F: CD25/ζ with the tyrosine at residue 153 substituted for a phenylalanine (SEQ ID NO:31) (protein)
# chain: RAKFSRSAETAANLQDPNQLYNELNLGRREEYDVLEKKRARDPEMGGKQQRRRNPQEGVYNALQKDKMAEAYSEIGTKGERRRGKGHDGLYQGLSTATKDTFDALHMQTLAPR
# B2: CD8/ζY153E: substituted CD8/ζ chimera (SEQ ID NO:30) (protein)
# chain: B1 chain with F102E
# B3: CD25/ζ: chimera of extracellular and transmembrane regions of CD25 and the cytoplasmic domain of TCR-ζ (protein)
# chain: ELCDDDPPEIPHATFKAMAYKEGTMLNCECKRGFRRIKSGSLYMLCTGNSSHSSWDNQCQCTSSATRNTTKQVTPQPEEQKERKTTEMQSPMQPVDQASLPGHCREPPPWENEATERIYHFVVGQMVYYQCVQGYRALHRGPAESVCKMTHGKTRWTQPQLICTGEMETSQFPGEEKPQASPEGRPESETSCLVTTTDFQIQTEMAATMETSIFTTEYQVAVAGCVFLLISVLLLSGLRAKFSRSAETAANLQDPNQLYNELNLGRREEYDVLEKKRARDPEMGGKQQRRRNPQEGVYNALQKDKMAEAYSEIGTKGERRRGKGHDGLYQGLSTATKDTYDALHMQTLAPR
# Columns and labels:
# [1] = tested on: TCR-ζ; assay: Cell-free association of TCR-ζ with the actin cytoskeleton (detergent soluble lysate, newly polymerized pellet); assay type: biochemical, murine
# Procedure: Freshly isolated murine thymocytes or lymph node T cells, or CD25/ζ-expressing T cell hybridomas, were washed 3 times in BSS and incubated in the presence or absence of cytochalasin D for 1.5 hrs at 4° C., solubilized with 0.5% NP-40 in a Tris buffered saline solution (TBS; 150 mM NaCl, 10 mM Tris, pH 7.3) containing protease and phosphatase inhibitors (0.2 mM VO3, 10 mM NaF, 1 mM PMSF, and 1 mg/ml each of Aprotinin, Leupeptin, and α-l-antitrypsin) and centrifuged at 10,000 rpm for 10 min to pellet the insoluble material. […] To increase actin polymerization, the Mg^2+ concentration was increased to 2 mM. […] Immunoprecipitation of the detergent soluble fraction with anti-TCR-ζ antibody was then performed as described in Example 4. The pellet and the anti-TCR-ζ immunoprecipitate were resolved by SDS-PAGE gel electrophoresis and immunoblotted with anti-TCR-ζ antibody.
# [2] = tested on: IL-2 production; assay: IL-2 production by T cells expressing chimeric molecules after antibody cross-linking; assay type: cell-based; conditions: for IL-2 production, fold less than the wild-type CD8/ζ: maximal stimulation with anti-CD8-α antibody, 24 hours, FIG. 4
# Procedure: Microcultures of 0.25 ml were prepared containing 10^5 responding T cells expressing CD8/ζ, CD8/ζD67-126, CD8/ζY153E, CD25/ζ or CD25/ζY153E. For stimulation, microtiter wells were precoated with 50 μl of a phosphate-buffered saline solution containing varying concentrations of purified anti-CD8-α antibody (19/178) or anti-hCD25 antibody (B1.49.9) to cross-link the CD8/ζ, CD8/ζD67-126 and CD8/ζY153E, or CD25/ζ and CD25/ζY153E, respectively, on the surface of the T cells. Control wells were coated with an irrelevant antibody. After 2 hours at room temperature and 1 hr at 4° C., the wells were washed three times with fetal calf serum-containing tissue culture medium. […]. After 24 hours in culture, the supernatants were harvested and assayed for IL-2 content using methods generally described in Gillis et al. (J. Immunol. 120:2027-2032, 1978). A concentration of 1 U/ml of IL-2 was the minimum detectable in this assay.
# [3] = tested on: BW 5147 α−β− thymoma transfectants; assay: Association of chimeric or truncated TCR-ζ molecules with the cytoskeleton upon receptor ligation (immunoblot of detergent insoluble pellet); assay type: cell-based; conditions: substitution of the distal COOH-terminal tyrosine of the third ITAM
molecule,measurement,setting,value
"[Mg+2] [Mg^2+, reference compound]",TCR-ζ binding with actin polymerization induced in vitro,[1]; 2 mM Mg2+ alone,without additional TCR-ζ binding
CD8/ζD67-126: truncated CD8/ζ chimera expressing only intact ζc domain (SEQ ID NO:29) (RAKFSRSAETAANLQGTKGERRRGKGHDGLYQGLSTATKDTYDALHMQTLAPR),"IL-2 production, fold less than the wild-type CD8/ζ",[2],40 fold
B1,"Tyrosine phosphorylation of a set of proteins induced by receptor ligation, compared with the intact CD25/ζ chimera",[2]; receptor ligation,qualitatively and quantitatively indistinguishable
same,Effect of removal of the distal tyrosine (Y153F) on cytoskeletal association,[3],almost completely abrogated cytoskeletal association
B2,"IL-2 production, fold less than the wild-type CD8/ζ",[2],100 fold
B3,Co-sedimentation with the actin cytoskeleton in vitro,"[1]; in vitro activating (MgATP) condition, depleted from the pellet under actin depolymerizing conditions",co-sediments with the actin cytoskeleton
